According to PMC2764551:

Biological target: fluorescein-labeled UBE2D2 (WT) (human), P62837
Test: fluorescence polarisation
Conditions: remark: other sources report otherwise

Chain of fluorescein-labeled UBE2D2 (WT) (human), P62837 (P62837 whole entry): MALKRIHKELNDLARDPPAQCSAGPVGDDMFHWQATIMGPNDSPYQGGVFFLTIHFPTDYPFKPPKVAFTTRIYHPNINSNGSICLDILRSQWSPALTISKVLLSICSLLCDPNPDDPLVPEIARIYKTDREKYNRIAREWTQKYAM

B1: IpaH1.4 C-terminal domain, residues 265-575, A0A0H2USG1 265-575 (domain or fragment)
chain: GPQIFFSMGNSATISAPEHSLADAVTAWFPENKQSDVSQIWHAFEHEEHANTFSAFLDRLSDTVSARNTSGFREQVAAWLEKLSASAELRQQSFAVAADATESCEDRVALTWNNLRKTLLVHQASEGLFDNDTGALLSLGREMFRLEILEDIARDKVRTLHFVDEIEVYLAFQTMLAEKLQLSTAVKEMRFYGVSGVTANDLRTAEAMVRSREENEFTDWFSLWGPWHAVLKRTEADRWAQAEEQKYEMLENEYSQRVADRLKASGLSGDADAEREAGAQVMRETEQQIYRQLTDEVLALRLSENGSNHIA
Kd: 317 µM
